We go through three molecules from doi:10.1101/2022.10.11.511805 (bioRxiv, 2022).

Test [1] has as its target T1, cleaved GP (GPCL): EBOV GP treated with thermolysin, glycan cap removed (Zaire ebolavirus, Mayinga-76, UniProt Q05320). In words: SPR. On the technique in general: Surface plasmon resonance follows binding to a sensor surface in real time, without labels.
In test [2] the target is T1, cleaved GP (GPCL): EBOV GP treated with …. In words: SEC. Background: In gel filtration, larger molecules generally elute earlier.
Target sequence in this assay (Q05320 33-501, chain 1 of 2): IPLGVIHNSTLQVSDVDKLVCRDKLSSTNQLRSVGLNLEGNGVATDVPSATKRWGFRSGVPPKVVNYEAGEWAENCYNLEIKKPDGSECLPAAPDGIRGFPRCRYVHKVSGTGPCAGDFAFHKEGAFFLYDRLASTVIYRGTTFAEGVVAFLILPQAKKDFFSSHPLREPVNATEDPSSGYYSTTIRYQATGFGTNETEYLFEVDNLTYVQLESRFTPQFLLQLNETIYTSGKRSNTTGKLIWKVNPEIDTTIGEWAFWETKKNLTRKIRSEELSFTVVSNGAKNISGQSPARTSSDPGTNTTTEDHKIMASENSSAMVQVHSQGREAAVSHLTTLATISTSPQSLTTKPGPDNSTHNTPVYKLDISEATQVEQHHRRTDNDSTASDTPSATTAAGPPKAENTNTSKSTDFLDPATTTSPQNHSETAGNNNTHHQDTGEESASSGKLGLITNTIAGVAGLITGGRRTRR
Target sequence in this assay (Q05320 33-650, chain 2 of 2): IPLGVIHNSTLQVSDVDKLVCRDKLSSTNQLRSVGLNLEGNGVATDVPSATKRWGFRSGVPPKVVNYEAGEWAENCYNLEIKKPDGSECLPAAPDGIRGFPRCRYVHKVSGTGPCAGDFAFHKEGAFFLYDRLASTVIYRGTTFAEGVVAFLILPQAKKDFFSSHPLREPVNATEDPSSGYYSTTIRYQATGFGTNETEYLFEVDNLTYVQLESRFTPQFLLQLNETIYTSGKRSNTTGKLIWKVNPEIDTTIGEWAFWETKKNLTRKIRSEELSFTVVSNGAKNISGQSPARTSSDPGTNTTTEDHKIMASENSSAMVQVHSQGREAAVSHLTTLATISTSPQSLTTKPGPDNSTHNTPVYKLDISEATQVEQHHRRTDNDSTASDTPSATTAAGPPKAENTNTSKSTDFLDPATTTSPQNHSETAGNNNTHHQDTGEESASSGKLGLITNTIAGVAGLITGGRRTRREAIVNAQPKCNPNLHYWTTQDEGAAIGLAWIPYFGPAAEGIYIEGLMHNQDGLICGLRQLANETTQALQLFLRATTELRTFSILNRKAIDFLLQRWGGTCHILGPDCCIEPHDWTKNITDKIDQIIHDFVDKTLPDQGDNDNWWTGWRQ

As a reminder, the Kd is the equilibrium constant for the complex coming apart. Higher therefore signals lower affinity.

B1: REGN3479 (maftivimab) (antibody, V domains shown)
VH: EVQLVESGGGLVQPGGSLRLSCAASGFTSSSYAMNWVRQAPGKGLEWVSTISGMGGSTYYADSVKGRFTISRDNSKNTLYLQMNSLRAEDTAVYYCAKRGYPHSFDIWGQGTMVTVSS
VL: not shown
In test [1], B1 came in with an equilibrium dissociation constant (Kd) of 0.14 nM.

B2: REGN3471 (odesivimab) (antibody, V domains shown)
VH: EVQLVESGGGLVQPGGSLRLSCAASGFTFSSYDMHWVRQATGKGLEWVSAIGTAGDTYYPGSVKGRFTISRENAKNSLYLQMNSLRAGDTAVYYCARTWFGELYFDYWGQGTLVTVSS
VL: not shown
For B2, in test [1], the Kd was 15.8 nM and the “fold reduction of the binding half-life relative to GP” value was 4 fold.

B3: REGN3470 Fab (Fab, V domains shown)
VH: QVQLVESGGGVVQPGRSLRLSCAASGFTFNNYGMHWVRQAPGMGLEWVAVIWHDGSDKYYADSVKGRFTISRDNSKNTLYLQMNSLRAEDTAVYYCARNWNLFDYWGQGTLVTVSS
VL: DIQMTQSPSSLSASVGDRITITCRASQSISTYLHWYQQKPGKAPKLLIYAASTLQSGVPSRFSGSGSGTDFTLTISSLQPEDFATYYCQQSFSTPPINFGQGTKLEIK
As for B3, the binding result in test [2] is “no binding”.
